Measurements taken from US20120244162A1 (MICROMET, published 2012).
Changes are numbered by the printed parent chain. Names and notes keep the numbering of the source. Each block holds one binder with its values, some of them ahead of it.

Assays:
[1] = biological target: T1, 1-27 CD3-Fc (N-terminal amino acids 1-27 of the mature human CD3 epsilon chain fused to the hinge and Fc … (human)); assay: ELISA, periplasmic scFv on captured 1-27 CD3-Fc
T1 construct: also called 1-27 CD3ε-Fc; human CD3 epsilon (aa 1-27)-Fc fusion protein

swine 1-27 CD3ε-EpCAM = biological target: T2, swine 1-27 CD3ε-EpCAM (Sus scrofa CD3 epsilon 1-27, cynomolgus …); assay: FACS on transfected 293-HEK cells
T2 construct: Negative control construct on 293-HEK cells; also called 1-27 CD3-EpCAM comprising the swine 27 mer
T2 chain: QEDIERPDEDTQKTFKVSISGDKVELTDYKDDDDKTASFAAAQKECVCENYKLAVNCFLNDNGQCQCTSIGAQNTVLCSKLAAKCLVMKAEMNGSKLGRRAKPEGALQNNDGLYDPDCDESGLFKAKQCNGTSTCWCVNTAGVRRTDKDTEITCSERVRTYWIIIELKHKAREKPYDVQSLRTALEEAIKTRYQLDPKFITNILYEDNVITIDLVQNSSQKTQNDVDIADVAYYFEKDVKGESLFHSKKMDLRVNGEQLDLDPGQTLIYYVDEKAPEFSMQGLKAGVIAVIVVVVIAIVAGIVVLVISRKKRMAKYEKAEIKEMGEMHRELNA

human 1-27 CD3ε-EpCAM = biological target: T3, human 1-27 CD3ε-EpCAM (human CD3 epsilon 1-27, cynomolgus EpCAM); assay: FACS on transfected 293-HEK cells, periplasmic scFv
T3 construct: Transmembrane fusion: CD3 epsilon 1-27, Flag tag, mature cynomolgus EpCAM; on transiently transfected 293-HEK cells; also called 1-27 CD3-EpCAM comprising the human 27 mer
T3 chain: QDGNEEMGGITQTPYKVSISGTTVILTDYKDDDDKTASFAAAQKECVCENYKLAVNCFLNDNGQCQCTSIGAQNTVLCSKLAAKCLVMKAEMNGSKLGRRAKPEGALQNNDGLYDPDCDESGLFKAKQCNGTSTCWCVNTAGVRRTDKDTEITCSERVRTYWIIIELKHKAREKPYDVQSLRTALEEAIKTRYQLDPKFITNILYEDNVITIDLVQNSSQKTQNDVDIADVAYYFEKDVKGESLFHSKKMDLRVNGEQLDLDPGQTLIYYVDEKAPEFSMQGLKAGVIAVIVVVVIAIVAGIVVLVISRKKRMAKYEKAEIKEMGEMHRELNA

marmoset 1-27 CD3ε-EpCAM = biological target: T4, marmoset 1-27 CD3ε-EpCAM (Callithrix jacchus CD3 epsilon 1-27, …); assay: as above
T4 construct: On transiently transfected 293-HEK cells; also called 1-27 CD3-EpCAM comprising the marmoset 27 mer
T4 chain: T3 chain with G9D, I10T, T13N, I25T

tamarin 1-27 CD3ε-EpCAM = biological target: T5, tamarin 1-27 CD3ε-EpCAM (Saguinus oedipus CD3 epsilon 1-27, …); assay: as above
T5 construct: On transiently transfected 293-HEK cells; also called 1-27 CD3-EpCAM comprising the tamarin 27 mer
T5 chain: T3 chain with G9D, I10T, T13N, I25T

[2] = biological target: T6, squirrel monkey 1-27 CD3ε-EpCAM (Saimiri sciureus CD3 epsilon 1-27, …); assay: as above
T6 construct: also called 1-27 CD3-EpCAM comprising the squirrel monkey 27 mer
T6 chain: T3 chain with M7I, G9D, I10T, T13N, I25T

[3] = biological target: T7, human CD3 epsilon alanine mutant, position 2 (D2A) (human, UniProt P07766 22-207); assay: alanine scanning, FACS on EL4 transfectants
T7 construct: On transfected EL4 cells

[4] = biological target: T8, human CD3 epsilon alanine mutant, position 3 (G3A) (human, UniProt P07766 22-207); assay: alanine scanning, FACS on EL4 transfectants
T8 construct: On transfected EL4 cells

[5] = biological target: T9, human CD3 epsilon alanine mutant, position 5 (E5A) (human, UniProt P07766 22-207); assay: alanine scanning, FACS on EL4 transfectants
T9 construct: On transfected EL4 cells

[6] = biological target: T10, human CD3 epsilon alanine mutant, position 1 (Q1A) (human, UniProt P07766 23-207); assay: alanine scanning, FACS on EL4 transfectants
T10 construct: On transfected EL4 cells; positions count on the mature chain

[7] = biological target: T1, 1-27 CD3-Fc (N-terminal amino acids …); assay: SPR (Biacore 2000), 1-27 CD3-Fc coupled to CM5 chip, analyte 5 µg/ml
[8] = biological target: T11, macaque CD3 on the macaque T cell line 4119LnPx (macaque, UniProt Q95LI5 22-198); assay: FACS, 4119LnPx
T11 construct: whole, on cells; Native CD3 complex on 4119LnPx cells; also called cynomolgus CD3
T11 sequence (Q95LI5 22-198): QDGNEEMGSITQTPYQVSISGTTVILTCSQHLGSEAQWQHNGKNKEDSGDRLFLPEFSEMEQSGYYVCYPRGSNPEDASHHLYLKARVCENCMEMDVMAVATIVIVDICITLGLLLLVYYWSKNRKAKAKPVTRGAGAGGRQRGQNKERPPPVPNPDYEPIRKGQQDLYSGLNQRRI

T10 sequence (P07766 other isoform, or with tags, fused parts or gaps, stated change not applied): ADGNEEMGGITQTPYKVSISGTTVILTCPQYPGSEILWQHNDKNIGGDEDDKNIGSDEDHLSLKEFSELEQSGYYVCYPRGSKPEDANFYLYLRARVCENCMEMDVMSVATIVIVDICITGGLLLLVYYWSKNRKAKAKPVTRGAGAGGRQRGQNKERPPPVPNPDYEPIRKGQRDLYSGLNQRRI
T9 sequence (P07766 other isoform, or with tags, fused parts or gaps limits assumed, stated change not applied): as the sequence (P07766 other isoform, or with tags, fused parts or gaps, stated change not applied) above, with A1Q, E5A counted along it
T8 sequence (P07766 other isoform, or with tags, fused parts or gaps limits assumed, stated change not applied): as the sequence (P07766 other isoform, or with tags, fused parts or gaps, stated change not applied) above, with A1Q, G3A counted along it
T7 sequence (P07766 other isoform, or with tags, fused parts or gaps limits assumed, stated change not applied): as the sequence (P07766 other isoform, or with tags, fused parts or gaps, stated change not applied) above, with A1Q, D2A counted along it

B3: A2J HLP chimeric IgG antibody (murine IgG1 and human lambda constant regions) (antibody, V domains shown)
VH: EVQLLESGGGLVQPGGSLKLSCAASGFTFNVYAMNWVRQAPGKGLEWVARIRSKYNNYATYYADSVKKRFTISRDDSKNTAYLQMNNLKTEDTAVYYCVRHGNFGNSYLSWWAYWGQGTLVTVSS
VL: ELVVTQEPSLTVSPGGTVTLTCRSSTGAVTSGYYPNWVQQKPGQAPRGLIGATDMRPSGTPARFSGSLLGGKAALTLSGVQPEDEAEYYCALWYSNRWVFGGGTKLTVLG
notes: also called IgG antibody A2J HLP
binding result [3]: no binding
binding result [4]: no binding
binding result [5]: no binding
binding result [6]: no binding

B5: EGFR-21-63 LH × A2J HLP (bispecific antibody)
chain: DIVLTQSPASLPVSLGQRATISCRASQSVSSSTYSYIHWYQQKPGQPPKLLITYASNLESGVPARFSGSGSGTDFTLDIHPVEEDDSSTYYCQHSWEIPFTFGSGTKLEIKGGGGSGGGGSGGGGSQVQLQQSGPDLVKPGASVKMSCKASGHTFTDCVIIWVKQRAGQGLEWIGQIYPGTGRSYYNEIFKGKATLTADKSSNTVHIQLSSLTSEDSAVYFCALSTLIHGTWFSYWGQGTLVTVSSGGGGSEVQLLESGGGLVQPGGSLKLSCAASGFTFNVYAMNWVRQAPGKGLEWVARIRSKYNNYATYYADSVKKRFTISRDDSKNTAYLQMNNLKTEDTAVYYCVRHGNFGNSYLSWWAYWGQGTLVTVSSGGGGSGGGGSGGGGSELVVTQEPSLTVSPGGTVTLTCRSSTGAVTSGYYPNWVQQKPGQAPRGLIGATDMRPSGTPARFSGSLLGGKAALTLSGVQPEDEAEYYCALWYSNRWVFGGGTKLTVLHHHHHH
notes: Bispecific single chain antibody; also called EGFR LH × A2J HLP
Kd [7]: 249 nM

B6: EGFR-21-63 LH × E2M HLP (bispecific antibody)
chain: B5 chain with V282G, K319E, G353R, W363F
notes: Bispecific single chain antibody; also called EGFR LH × E2M HLP
Kd [7]: 2460 nM

Next, values leading:

binding result [1]: binds
B1: A2J HLP single-chain antibody (scFv)
scFv: EVQLLESGGGLVQPGGSLKLSCAASGFTFNVYAMNWVRQAPGKGLEWVARIRSKYNNYATYYADSVKKRFTISRDDSKNTAYLQMNNLKTEDTAVYYCVRHGNFGNSYLSWWAYWGQGTLVTVSSGGGGSGGGGSGGGGSELVVTQEPSLTVSPGGTVTLTCRSSTGAVTSGYYPNWVQQKPGQAPRGLIGATDMRPSGTPARFSGSLLGGKAALTLSGVQPEDEAEYYCALWYSNRWVFGGGTKLTVLTGDYKDDDDKHHHHHH
notes: Crude periplasmic preparation; also called VH-VL-P of A2J

binding result (swine 1-27 CD3ε-EpCAM): no binding
binding result [1]: binds
binding result (human 1-27 CD3ε-EpCAM): binds
binding result (marmoset 1-27 CD3ε-EpCAM): binds
binding result (tamarin 1-27 CD3ε-EpCAM): binds
binding result [2]: binds
B2: E2M HLP single-chain antibody (scFv)
scFv: B1 scFv with V31G, K68E, G102R, W112F
notes: Crude periplasmic preparation; also called VH-VL-P of E2M

binding result [3]: no binding
binding result [4]: no binding
binding result [5]: no binding
binding result [6]: no binding
B4: E2M HLP chimeric IgG antibody (murine IgG1 and human lambda constant regions) (antibody, V domains shown)
VH: B3 VH with V31G, K68E, G102R, W112F
VL: B3 VL
notes: also called IgG antibody E2M HLP

binding result [8]: binds
B7: MCSP-G4 HLP × E2M HLP (bispecific antibody)
chain: QVQLVQSGAEVKRPGASMKVSCKASGYTFTNYYIHWVRQAPGQGLEWMGWINPNSGATNYAQKFQGRVTMTRDTSTSTVYMELSSLRSEDTAVYYCAKSWVSWFASWGQGTLVTVSSGGGGSGGGGSGGGGSELVMTQSPDSLAVSLGERATINCKSSQSVLNSSNNRNYLAWYQQKPGQPPKLLIYWASTRESGVPDRFSGSGSGTDFTLTISGLQAEDVAVYYCQQHYSTPFTFGPGTKVDIKSGGGGSEVQLLESGGGLVQPGGSLKLSCAASGFTFNGYAMNWVRQAPGKGLEWVARIRSKYNNYATYYADSVKERFTISRDDSKNTAYLQMNNLKTEDTAVYYCVRHRNFGNSYLSWFAYWGQGTLVTVSSGGGGSGGGGSGGGGSELVVTQEPSLTVSPGGTVTLTCRSSTGAVTSGYYPNWVQQKPGQAPRGLIGATDMRPSGTPARFSGSLLGGKAALTLSGVQPEDEAEYYCALWYSNRWVFGGGTKLTVLHHHHHH
